According to patent US20250297004A1, “NECTIN-4 BINDING AGENTS” (INNATE PHARMA, priority 2022, published 2025):

How the values were obtained:
[1] = target: T1, human Nectin-4 expressed on cells (human, UniProt Q96NY8 32-510); assay: cell-based or functional assay
T1 sequence: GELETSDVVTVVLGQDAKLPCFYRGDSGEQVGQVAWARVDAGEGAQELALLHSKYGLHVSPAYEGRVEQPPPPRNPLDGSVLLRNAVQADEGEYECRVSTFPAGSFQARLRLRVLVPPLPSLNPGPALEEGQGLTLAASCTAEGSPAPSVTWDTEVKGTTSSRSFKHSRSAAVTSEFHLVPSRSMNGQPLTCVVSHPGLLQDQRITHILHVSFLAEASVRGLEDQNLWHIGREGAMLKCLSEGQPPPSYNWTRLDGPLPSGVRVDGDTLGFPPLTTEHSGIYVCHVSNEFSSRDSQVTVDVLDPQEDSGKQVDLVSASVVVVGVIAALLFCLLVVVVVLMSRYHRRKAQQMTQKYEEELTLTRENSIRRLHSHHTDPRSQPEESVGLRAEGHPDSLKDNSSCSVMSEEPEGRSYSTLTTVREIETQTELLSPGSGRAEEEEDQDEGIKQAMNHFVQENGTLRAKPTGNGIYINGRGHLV

[2] = target: T1, human Nectin-4 expressed on cells; assay: cell-based or functional assay; remark: listed apart in the source
[3] = target: T1, human Nectin-4 expressed on cells; assay: flow cytometry on SUM190 cells, MedFI at saturation
Protocol: The humanized antibodies in Table 3 of Example 3 and in Table 6 of Example 5 were cloned, produced and purified, then tested for binding to Nectin-4 expressing cells by flow cytometry. Binding of humanized variants in human IgG1 format was determined on the SUM190 cell line expressing high levels of Nectin-4.

[4] = target: human Nectin-4 (protein used in the SPR affinity measurements) (human) (UniProt Q96NY8); assay: SPR, human IgG1
human Nectin-4 = target: T2, human Nectin-4 (Homo sapiens, UniProt Q96NY8); assay: Binding to human Nectin-4 by SPR; settings: second set (Table 7); for ka: SPR association constant; for kd: SPR dissociation constant; for Kd: SPR, human IgG1 isotype antibodies
T2 sequence (Q96NY8 32-510): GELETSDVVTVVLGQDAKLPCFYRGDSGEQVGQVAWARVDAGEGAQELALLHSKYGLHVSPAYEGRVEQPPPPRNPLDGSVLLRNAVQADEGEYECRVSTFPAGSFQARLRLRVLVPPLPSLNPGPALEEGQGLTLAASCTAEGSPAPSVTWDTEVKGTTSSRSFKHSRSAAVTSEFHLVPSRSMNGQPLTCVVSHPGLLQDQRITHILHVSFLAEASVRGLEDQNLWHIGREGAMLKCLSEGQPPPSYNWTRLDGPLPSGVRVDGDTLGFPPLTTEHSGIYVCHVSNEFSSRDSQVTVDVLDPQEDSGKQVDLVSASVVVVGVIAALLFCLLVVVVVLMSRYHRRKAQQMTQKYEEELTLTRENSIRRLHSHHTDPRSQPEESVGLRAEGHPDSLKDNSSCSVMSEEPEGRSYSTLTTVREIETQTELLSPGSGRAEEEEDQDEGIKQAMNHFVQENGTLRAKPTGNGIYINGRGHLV
Protocol: The antibodies in Table 3 of Example 3 were cloned as human IgG1 isotype antibodies, produced and purified, then tested for binding to human Nectin-4. Affinity of the 16 humanized variants, as well as their association and dissociation constants were assessed by SPR analysis. Table 4 summarizes all the calculated constants (Affinity constant KD (nM), association constant ka (1/Ms) and dissociation constant kd (1/s)).
The antibodies in Table 6 of Example 5 were cloned as human IgG1 isotype antibodies, produced and purified, then tested for binding to human Nectin-4. Affinity of the 16 humanized variants, as well as their association and dissociation constants were assessed by SPR analysis. Table 7 summarizes all the calculated constants (Affinity constant KD (nM), association constant ka (1/Ms) and dissociation constant kd (1/s)).

internalization efficiency on SUM190, normalized to chimeric parental antibody (Fab-ZAP, CTG), experiment 1 [1] | internalization efficiency on SUM190, normalized to chimeric parental antibody (Fab-ZAP, CTG), experiment 2 [1] | internalization efficiency on MDA-MB-468, normalized to chimeric parental antibody (Fab-ZAP, CTG), first column [2] | internalization efficiency on MDA-MB-468, normalized to chimeric parental antibody (Fab-ZAP, CTG), second column [2] | Max MedFi [3] [MedFI] | Kd [4] [nM] | koff [4] [s⁻¹] | kon [4] [M⁻¹ s⁻¹] | ka (human Nectin-4) [M⁻¹ s⁻¹] | kd (human Nectin-4) [s⁻¹] | Kd (human Nectin-4) [nM] | Molecule
83.6 % of chimeric parental | 67.6 % of chimeric parental | 64.2 % of chimeric parental | 64.2 % of chimeric parental | 24400 | 26.8 | 0.0054 | 200000 | 200000 | 0.0054 | 26.8 | H4L2 (antibody, human IgG1, V domains shown, human IgG1 isotype) VH: QVQLVQSGAEVKKPGASVKVSCKASGYIFTSYWMHWVKQAPGQGLEWMGEIDPSDSYTNYNQKFKGRVTMTLDKSTSTTYMELSSLRSEDTAVYYCARGYGNYGDYWGQGTLVTVSS VL: DVVMTQSPLSNPVTPGEPASISCRSSKSLLHSNGITYLYWYLQKPGQSPQLLIYQMSNLASGVPDRFSSSGSGTDFTLKISRVEAEDVGVYYCAQNLELPWTFGGGTKVEIK
71.3 % of chimeric parental | 54.5 % of chimeric parental | 61.6 % of chimeric parental | 61.6 % of chimeric parental | 18300 | 32.1 | 0.0062 | 190000 | 190000 | 0.0062 | 32.1 | H6L1 (antibody, human IgG1, V domains shown, human IgG1 isotype) VH: QVQLVQSGAEVKKPGASVKVSCKASGYIFTSYWMHWVKQRPGQGLEWIGEIDPSDSYTNYNQKFKGRVTMTLDKSTSTTYMELSSLRSEDTAVYYCARGYGNYGDYWGQGTLVTVSS VL: DVVMTQSPLSLPVTPGEPASISCRSSKSLLHSNGITYLYWYLQKPGQSPQLLIYQMSNLASGVPDRFSSSGSGTDFTLKISRVEAEDVGVYYCAQNLELPWTFGGGTKVEIK
81.9 % of chimeric parental | 61 % of chimeric parental | 43.8 % of chimeric parental | 43.8 % of chimeric parental | 24800 | 21.6 | 0.0052 | 250000 | 250000 ± 30000 | 0.0052 ± 0.0002 | 21.6 ± 1.1 | H4L3 (antibody, human IgG1, V domains shown, human IgG1 isotype) VH: QVQLVQSGAEVKKPGASVKVSCKASGYIFTSYWMHWVKQAPGQGLEWMGEIDPSDSYTNYNQKFKGRVTMTLDKSTSTTYMELSSLRSEDTAVYYCARGYGNYGDYWGQGTLVTVSS VL: DVVMTQSALSNPVTPGEPASISCRSSKSLLHSNGITYLYWYLQKPGQSPQLLIYQMSNLASGVPDRFSSSGSGTDFTLKISRVEAEDVGVYYCAQNLELPWTFGGGTKVEIK
78.7 % of chimeric parental | 92.8 % of chimeric parental | 66.3 % of chimeric parental | 66.3 % of chimeric parental | 24800 | 38.6 | 0.0051 | 130000 | 130000 | 0.0051 | 38.6 | H6L3 (antibody, human IgG1, V domains shown, human IgG1 isotype) VH: QVQLVQSGAEVKKPGASVKVSCKASGYIFTSYWMHWVKQRPGQGLEWIGEIDPSDSYTNYNQKFKGRVTMTLDKSTSTTYMELSSLRSEDTAVYYCARGYGNYGDYWGQGTLVTVSS VL: DVVMTQSALSNPVTPGEPASISCRSSKSLLHSNGITYLYWYLQKPGQSPQLLIYQMSNLASGVPDRFSSSGSGTDFTLKISRVEAEDVGVYYCAQNLELPWTFGGGTKVEIK
69.7 % of chimeric parental | 63.5 % of chimeric parental | 58.5 % of chimeric parental | 58.5 % of chimeric parental | 24800 | 41.3 | 0.0058 | 140000 | 140000 | 0.0058 | 41.3 | H6L2 (antibody, human IgG1, V domains shown, human IgG1 isotype) VH: QVQLVQSGAEVKKPGASVKVSCKASGYIFTSYWMHWVKQRPGQGLEWIGEIDPSDSYTNYNQKFKGRVTMTLDKSTSTTYMELSSLRSEDTAVYYCARGYGNYGDYWGQGTLVTVSS VL: DVVMTQSPLSNPVTPGEPASISCRSSKSLLHSNGITYLYWYLQKPGQSPQLLIYQMSNLASGVPDRFSSSGSGTDFTLKISRVEAEDVGVYYCAQNLELPWTFGGGTKVEIK
81.3 % of chimeric parental | 86 % of chimeric parental | 39.4 % of chimeric parental | 39.4 % of chimeric parental | 25300 | 23.8 | 0.0053 | 220000 | 220000 | 0.0053 | 23.8 | H5L2 (antibody, human IgG1, V domains shown, human IgG1 isotype) VH: QVQLVQSGAEVKKPGASVKVSCKASGYIFTSYWMHWVKQRPGQGLEWMGEIDPSDSYTNYNQKFKGRVTMTLDKSTSTTYMELSSLRSEDTAVYYCARGYGNYGDYWGQGTLVTVSS VL: DVVMTQSPLSNPVTPGEPASISCRSSKSLLHSNGITYLYWYLQKPGQSPQLLIYQMSNLASGVPDRFSSSGSGTDFTLKISRVEAEDVGVYYCAQNLELPWTFGGGTKVEIK
71.5 % of chimeric parental | 52.4 % of chimeric parental | 33.4 % of chimeric parental | 33.4 % of chimeric parental | 18300 | 24.5 | 0.0056 | 230000 | 230000 | 0.0056 | 24.5 | H5L1 (antibody, human IgG1, V domains shown, human IgG1 isotype) VH: QVQLVQSGAEVKKPGASVKVSCKASGYIFTSYWMHWVKQRPGQGLEWMGEIDPSDSYTNYNQKFKGRVTMTLDKSTSTTYMELSSLRSEDTAVYYCARGYGNYGDYWGQGTLVTVSS VL: DVVMTQSPLSLPVTPGEPASISCRSSKSLLHSNGITYLYWYLQKPGQSPQLLIYQMSNLASGVPDRFSSSGSGTDFTLKISRVEAEDVGVYYCAQNLELPWTFGGGTKVEIK
